Among the data in paper PMC7841527 are fold reduction of binding compared to native HDAC4 values, retold here.

Assay [1] has as its target FLAG-tagged HDAC4 p.Glu247Gly variant (human). Nature of the assay: co-IP; HEK293 cells co-transfected with FLAG-HDAC4 (native or variant) and HA-14-3-3β; ~48 h post-transfection cleared extracts immunoprecipitated with anti-FLAG antibody; western blot with anti-HA; blots quantified with ImageJ relative to HDAC4 and 14-3-3β loading controls. For orientation: A western blot detects proteins with antibodies after separation by electrophoresis.

Assay [2] deals with FLAG-tagged HDAC4 p.Thr244Lys variant (human). The assay is described as above.
FLAG-tagged HDAC4 p.Thr244Lys variant (human), sequence (P56524 whole entry T244K): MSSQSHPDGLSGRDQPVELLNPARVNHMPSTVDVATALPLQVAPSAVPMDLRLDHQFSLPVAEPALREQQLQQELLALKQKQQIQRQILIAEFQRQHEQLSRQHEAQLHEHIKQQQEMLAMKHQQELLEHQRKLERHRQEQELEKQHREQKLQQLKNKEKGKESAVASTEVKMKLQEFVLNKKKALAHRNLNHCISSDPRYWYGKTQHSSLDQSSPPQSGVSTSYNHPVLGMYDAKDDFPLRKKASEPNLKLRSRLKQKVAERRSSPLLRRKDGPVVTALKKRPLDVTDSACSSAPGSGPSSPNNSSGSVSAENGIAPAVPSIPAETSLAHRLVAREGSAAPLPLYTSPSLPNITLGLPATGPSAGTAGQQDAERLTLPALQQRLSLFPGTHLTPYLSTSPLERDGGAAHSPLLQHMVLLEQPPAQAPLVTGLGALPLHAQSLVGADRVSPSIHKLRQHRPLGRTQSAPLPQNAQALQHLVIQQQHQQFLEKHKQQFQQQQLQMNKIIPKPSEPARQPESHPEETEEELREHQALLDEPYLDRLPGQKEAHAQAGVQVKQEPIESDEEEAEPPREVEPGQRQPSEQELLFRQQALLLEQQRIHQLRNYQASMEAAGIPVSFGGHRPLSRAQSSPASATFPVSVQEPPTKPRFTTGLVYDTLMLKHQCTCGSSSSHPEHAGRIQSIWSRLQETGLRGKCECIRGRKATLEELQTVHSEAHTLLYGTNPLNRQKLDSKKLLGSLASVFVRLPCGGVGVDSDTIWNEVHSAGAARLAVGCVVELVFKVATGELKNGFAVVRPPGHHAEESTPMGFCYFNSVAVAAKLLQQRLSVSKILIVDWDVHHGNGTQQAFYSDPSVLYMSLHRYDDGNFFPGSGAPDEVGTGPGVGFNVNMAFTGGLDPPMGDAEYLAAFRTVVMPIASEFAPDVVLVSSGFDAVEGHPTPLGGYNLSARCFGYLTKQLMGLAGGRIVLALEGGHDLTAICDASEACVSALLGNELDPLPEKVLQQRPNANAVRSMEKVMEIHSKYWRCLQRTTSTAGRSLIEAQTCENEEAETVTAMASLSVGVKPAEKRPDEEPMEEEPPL

FLAG-tagged HDAC4 p.Glu247Gly variant (human), sequence (P56524 whole entry E247G): as the sequence (P56524 whole entry T244K) above, with K244T, E247G counted along it

For the substance “14-3-3β (hemagglutinin [HA]-tagged) (from UniProt P31946 1-246) (natural protein)”, the fold reduction of binding compared to native HDAC4 in assay [1] and in assay [2] was 2 fold in each case.
